Assay: soluble fraction after stress (log2 fold change); higher = more stays soluble; pooled small domains, quantitative proteomics
Conditions: stress: 75 degC
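Note: 20 min heating vs room temperature control held 20 min.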

Sequence | soluble fraction (log2)
HMNQYRKLDGDVQNQIIYILSEYPKLPATIVYQRLLDTNTIVKKDVSLSTVNRFVQKYKDSKGIT | -1.19
HMLDIVVGSTGYALGEITDHSGTVRVNGDTWTARLVDAAGPVEDGDRVEVYAVEGTTLLVYPS | -0.619
HMKQISQNIHRLRKEKGMSQEQLAQALHVTRQTVSAWERGIAQPSLDVLGQIAQLLGVEPERLLYGE | 0.288
HMNVESMVGKQGKVVVEIDNISAKGMIKVDGMEWTARSVDGEIIPKDSLVAVVSVEGVKAMVRKAE | -0.106
HMGLAALLQSGPVAGTVLSHQPGGKVVIAFQGQAYPLNLKGRTLQPGQSVLARMAGEQISLEVI | -1.14
HMKEPQLGPVRKWSDQTGNFGIEAQFVKREGDNILLKRADQRTISIPLEKLSDADQEHLKQEEQKQAME | -0.333
HMVNGTPADPYDVLGVESSASPEELRAAWQTLVRQNHPDQLMARGVPLEAVKLAEARLVAINQAWDDLTK | -0.0568
HMKQVEVPRLVGLTLREAQAVLGQVGLRIGLISRAALLASPREQIVEQIPVAGERNIATPYVNLLVNVP | -0.895
HMAAINPSALREPATPPEQLSAGDSVLHPRFGRGEILELQQQGGDPRAIVQFINEPKPRTLVLRYAQLRK | -0.138
HMERLTVVPELLKRSLSEAQPLVTSARLRLEVSGGAPEDTSRAIVVGQKPPPGTRVQVGTTVIVTVQIQRP | -0.534
HMSILSIGLERGMKKGVAWGIAKSILDILEETGPVSEKTREMIVTETDAERLSAWVKKAARSNSEEDFLSK | -0.799
HMDRMIPPYGLEVTYDKTTHIIFPSAVRYVDLGSPNLIAGKADGSENVIRVKATRKNFREETNMSVITE | 0.152
HMTEFWTGPITTVTKANFADWTLDTNQDRITANVWLTRADSKGLFNITPGKETAFDIVDYLSPLDTEWA | -0.209
HMSSQADEEALFKLLAANPYSDEQLEEIRIAIGSGIAYKDIIRIADIGNTAERMKQLRLEFTKDTAN | 0.173
HMFKYLLDTNIVIYVIKKRPIEVMGVFNQNANRMAISAITFSELQHGAEKSVRVQENLNAIEEFTTLIDI | -0.0448
HMPSKKHARWIELEARKFMADNEDAVSDLHELRTRAANFAALKTSTLPVDQHRAIVAGFVARVNELGRRI | -1.02
HMIPLSDEETILLKLLEATETHLDALIRGSQLSAAKVSVVLMGMEMKRLVKRLPGQMYQRWD | -2.13
HMKNVSVKMILSPESLGEIQVDLVFSKGKDLEIMLRPETAEVAKLIQSNSASLREQLSLEHKGPLSLNVS | -0.32
HMSSWEEQLKIWAKNELASGNTDILARATVSFEQILIEAALTHTGGRKKTAAELLGWGRNTLTRKIKELHI | 0.0904
HMHAPKIIVLTINPDKIRDVIGPGGKMIKSIVAATGVKMDVEDDGKIHISSSDQKAADEAIRMINEITAEA | 0.146
HMDTMQQESMDTKSILATALMELTSRKNFAKITIADITHVSGFNRQTFYYHFRDKYELLSWIY | -0.0387
HMARGATELPYSQLLDRVEAGEITTATTQGNTLLSTARDGKRYITYLPLDTMDEVVPRLDAANVEVKTER | 0.103
HMVIQRQIPPLVTRMLDGLEQFIQLDMPFDLDTRLGNIEAVRANMDRSDVTSAEAYRQVLELYSIELQ | -0.559
HMTHRRLELTLDAIDERLDRALTAAVPELSRMQWQRLIREGLVTVDGERARPSYRIQGGETLVALVPEV | -0.448
HMDGVSAEAVKSHIKTLIDGEGAKILSDDTLVDLLNAKGFDIARRTVAKYREAMGIGSSVQRRRQKKMG | 0.00787
HMLEDDTVNTAEGIKIGDSFAAVTKAYGTDYVAAGNTYAYSKDKMTLTFVMNNDKVSTISYSLLTS | 0.136
HMSIYQYFNISEINSIDDLKKQYFKLAKKYHPDAGGDKVSFQELQNEYEQLTKKILSGAELNADELKTE | -0.126
HMTVLDYNENVLSKVMNAAEINDSDKEAFIAFAKDYNSDDNLYLKKEELETAAGAWNARNVE | 0.2

Sequence | soluble fraction (log2)
HMIQQFTYAFAKDKGVVVLPGRDVLTLGMRAGADPLVLLEARRALGSSFELEPLDRDTYERTLADVFTADA | -1.39
HMQQPVAYSEFVQSVNDRQIREAQIQGERIVATDNNGNRMTVIWPENDTKLLDELVQNGVLTSIQE | 0.116
HMSINTLEVHSLKALENLAESPLLISFSYENEEYNYRLASSDVSLLKKISSNYSDDSDIKGLRFIS | -0.893
HMYGHKLDSYESYVVSELRRWPFLSAPQIHDRLKEHFSDLPLVTPKTVFNFVNRLRLTHSLPKE | -3.38
HMKRYLFEEVLAFLKHNDGKSFNYKQLGAAMEIDNESDRFALLETLEELKHQGFVIETDIGKYAAKE | -0.868
HMQSVEELLDAIGDERLLHILLEADRKTLQIVVLKMMGYAPKEIGSHIGMPEQTVYTKLRRLREKIKKI | -1.65
HMIRDVDYNTFVSMVQEGKVGQVEIQEQNNRILFTDKDERTVYKTAMVPDSDLISRLLEAGVSTS | 0.359
HMVNIPEIAKKFGKSTSEVFEQIQIGEKHEMEHTNDPKKARKIALDHLSDDMDYYKKLKKLG | 0.212
HMLFRGNGFNTLYDKQLRITQQGEFKDGRLWDGKYYRYSKAGELVRIEIYEQGRYAGNGVITDEDKA | -1.06
HMKAQVKSVLDDIPGIGQTRRKALMRYFKSLEKIREASVEELKEADAMNERAAQSVYAFFHK | -0.775
HMSNNILEISSNKKNMKIQENKNLVESYYSKTENLYSFKLVFKNKRDLDQFLKEVYEDDSTINYKTSS | -1.27
HMENDYTQAQFVQDLDSGVVREVIIIPNREAPTGYARVVFGDVVRELYATDIREVEALAREHGYEPTVED | 0.343
HMNGQFIELKNTTGTIIEARVLSFQNGKVKLQRNDGLIFVASISIFDSESIEVIKQKVAEISESKKS | -1.97
HMKVNIGDQVYNQMKDQIMSGVWVPGEKIPSENQLMEVFGVSRGTVRQAIQKLSAVGLLETRRGEGSYVGQ | -0.136
HMNTFDLSKLEEIILASRDKAMKTKEFTELDNLKNLFITAGLDVQMSKNGIKLIKGPKFNSSLLEDF | -0.878
HMFEQFEVENLQELQQEWGDKFNHNLEMARRAFMNFATPEAVKVLEETGMGNHPELLKVFARIGEVLAED | -0.968
HMLISAESVKRRLEMIRHLILLGDYEDVTAQVIKLNPAANEYKLTPIIEELNGGKYQEALEKINSYLSKF | -0.839
HMGAAITEAEAKQIALDHAGVSESETERMRVKLGRDDGVQEYEVNFYVGNREYDYDINAATGEIRSHDSE | 0.107
HMTDKLEEEAKKKAMEDALADEMNISKTIVHDGIRELARIGFLDVISRKGIYVADYTFTGNLETLLAVIRY | -0.848
HMYKNAFITYDNNLYYLGSDSKMAIGWQSIGGNTYYFRNWGGMITGKQVIDGKTYVFDEDGKLVQSPD | -1.25
HMRGPVRLDLPVSGLSRSSGPALAKILQAVPGVHKAHVNVRSGKATLEYDPARAKVTDFVEVIRSAGFGT | -0.272
HMAPSIPSGADIRAAREAAGINLRDFARIVDGPGIAIWSRYETGTPIRVKSISPEVWQKVRDFISQHG | -0.801
HMDSERTALLSSDRTSFTAREAALLIGVSQRDIYRMIEDELLDSFTVGKMIRIRRSALEWWLS | -2.93
HMSLQEISDLISQAERADQEQLKEVLKQLHQVESGNQPMSKGFLSSALSTLNKYPALITSIGQLLFKLAT | -0.217
HMGPLYARVKAIVLARIMGGDWPPGTALPAEMELARALGVSQGTVRKALDALTAEQVVVRRQGSGTYVAE | -1.75
HMPGTPADQVAELQTKVGTETKTGDMITQDDVKLLQTALDPLAKMNDRIQAAKILESKGIVTSDGNLRT | 0.0421
HMTSLVRTSNLDGFEPLARSIGVDPVMELMRFGIPPDALIRENMFISFIGFIRLLEHTALAG | 0.364

Source: the domain aggregation screens of Martell et al. (2025)
